Experimental findings from the supplement of paper PMC5998384 are described below.

Data set [1] deals with HeLa Kyoto. Description: thermal stability score vs G1/S (z-score of summed log2 fold changes over temperatures); higher = more thermally stable than in G1/S.
The test system of data set [2] is HeLa Kyoto. The data set can be described thus: solubility in G1/S (NP-40 vs SDS abundance) (log2 ratio); higher = more soluble. The conditions noted are these: cell cycle stage: G1/S.
Data set [3] concerns HeLa Kyoto. The data set can be described thus: melting temperature (median over replicates), in situ; higher = more thermally stable.
In data set [4] the test system is HeLa Kyoto. Description: solubility change mitosis vs G1/S (difference of NP-40 vs SDS log2 ratios) (log2 ratio difference); higher = more soluble in mitosis.
Where [5] appears, read: cell cycle stage: early G1 (4.5 h after nocodazole release).
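Throughout, for melting temperature (median over replicates), in situ: HeLa Kyoto cells synchronized by double thymidine or nocodazole block, proteins quantified by TMT10plex mass spectrometry, three independent biological replicates.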
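Throughout, for solubility change mitosis vs G1/S (difference of NP-40 vs SDS log2 ratios): synchronized HeLa Kyoto cells (double thymidine block for G1/S, nocodazole release for mitosis), protein amounts in NP-40 versus SDS lysates quantified by mass spectrometry, three biological replicates.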
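Throughout, for solubility in G1/S (NP-40 vs SDS abundance): HeLa Kyoto cells arrested at G1/S by double thymidine block, proteins quantified by TMT10plex mass spectrometry in mild NP-40 versus SDS extracts, three biological replicates.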
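Throughout, for thermal stability score vs G1/S (z-score of summed log2 fold changes over temperatures): synchronized HeLa Kyoto cells, proteins quantified by TMT10plex mass spectrometry, three biological replicates, mitosis taken 0.5 h after nocodazole release, G1/S directly after double thymidine block.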

For “MSSGAASGTGRGRPRGGGPGPGDPPPSETHKLVVVGGGGVGKSALTIQFIQSYFVSDYDPTIEDSYTKICSVDGIPARLDILDTAGQEEFGAMREQYMRAGHGFLLVFAINDRQSFNEVGKLFTQILRVKDRDDFPVVLVGNKADLESQRQVPRSEASAFGASHHVAYFEASAKLRLNVDEAFEQLVRAVRKYQEQELPPSPPSAPRKKGGGCPCVLL [RRAS]”, the thermal stability score in data set [1] (setting [5]) is 0.904; in data set [1] (cell cycle stage: mitosis), -0.296. Moreover, the “solubility in G1/S (log2)” value in data set [2] came to 0.28. Also, the values for the melting temperature in data set [3] (cell cycle stage: G1/S) and in data set [3] (cell cycle stage: mitosis) were 56.1 °C and 56 °C, respectively. Moreover, the “solubility change mitosis (log2)” value in data set [4] is -0.0644.

As for “MAAPEGSGLGEDARLDQETAQWLRWDKNSLTLEAVKRLIAEGNKEELRKCFGARMEFGTAGLRAAMGPGISRMNDLTIIQTTQGFCRYLEKQFSDLKQKGIVISFDARAHPSSGGSSRRFARLAATTFISQGIPVYLFSDITPTPFVPFTVSHLKLCAGIMITASHNPKQDNGYKVYWDNGAQIISPHDKGISQAIEENLEPWPQAWDDSLIDSSPLLHNPSASINNDYFEDLKKYCFHRSVNRETKVKFVHTSVHGVGHSFVQSAFKAFDLVPPEAVPEQKDPDPEFPTVKYPNPEEGKGVLTLSFALADKTKARIVLANDPDADRLAVAEKQDSGEWRVFSGNELGALLGWWLFTSWKEKNQDRSALKDTYMLSSTVSSKILRAIALKEGFHFEETLTGFKWMGNRAKQLIDQGKTVLFAFEEAIGYMCCPFVLDKDGVSAAVISAELASFLATKNLSLSQQLKAIYVEYGYHITKASYFICHDQETIKKLFENLRNYDGKNNYPKACGKFEISAIRDLTTGYDDSQPDKKAVLPTSKSSQMITFTFANGGVATMRTSGTEPKIKYYAELCAPPGNSDPEQLKKELNELVSAIEEHFFQPQKYNLQPKAD [PGM2]”, the thermal stability score in data set [1] (setting [5]) is -0.0187; in data set [1] (cell cycle stage: mitosis), -1.07. Moreover, the “solubility in G1/S (log2)” value in data set [2] was 0.169. Besides, the melting temperature in data set [3] (cell cycle stage: G1/S) stood at 59.1 °C; in data set [3] (cell cycle stage: mitosis), 58.5 °C. In data set [4], the “solubility change mitosis (log2)” value is -0.112.

Regarding FAT1, the thermal stability score was 0.357 in data set [1] (setting [5]) and 0.56 in data set [1] (cell cycle stage: mitosis). The “solubility in G1/S (log2)” value in data set [2] was -0.133. The melting temperature in data set [3] (cell cycle stage: G1/S) and in data set [3] (cell cycle stage: mitosis) was 53.5 °C throughout. The “solubility change mitosis (log2)” value in data set [4] is -0.025.

On to GMPPB, for which the thermal stability score was -1.12 in data set [1] (setting [5]) and -4.14 in data set [1] (cell cycle stage: mitosis). Further, in data set [2], the “solubility in G1/S (log2)” value was -0.038. Also, the values for the melting temperature in data set [3] (cell cycle stage: G1/S) and in data set [3] (cell cycle stage: mitosis) were 54.3 °C and 54.1 °C, respectively. Further, in data set [4], the “solubility change mitosis (log2)” value was -0.108.

On to “MADREGGCAAGRGRELEPELEPGPGPGSALEPGEEFEIVDRSQLPGPGDLRSATRPRAAEGWSAPILTLARRATGNLSASCGSALRAAAGLGGGDSGDGTARAASKCQMMEERANLMHMMKLSIKVLLQSALSLGRSLDADHAPLQQFFVVMEHCLKHGLKVKKSFIGQNKSFFGPLELVEKLCPEASDIATSVRNLPELKTAVGRGRAWLYLALMQKKLADYLKVLIDNKHLLSEFYEPEALMMEEEGMVIVGLLVGLNVLDANLCLKGEDLDSQVGVIDFSLYLKDVQDLDGGKEHERITDVLDQKNYVEELNRHLSCTVGDLQTKIDGLEKTNSKLQEELSAATDRICSLQEEQQQLREQNELIRERSEKSVEITKQDTKVELETYKQTRQGLDEMYSDVWKQLKEEKKVRLELEKELELQIGMKTEMEIAMKLLEKDTHEKQDTLVALRQQLEEVKAINLQMFHKAQNAESSLQQKNEAITSFEGKTNQVMSSMKQMEERLQHSERARQGAEERSHKLQQELGGRIGALQLQLSQLHEQCSSLEKELKSEKEQRQALQRELQHEKDTSSLLRMELQQVEGLKKELRELQDEKAELQKICEEQEQALQEMGLHLSQSKLKMEDIKEVNQALKGHAWLKDDEATHCRQCEKEFSISRRKHHCRNCGHIFCNTCSSNELALPSYPKPVRVCDSCHTLLLQRCSSTAS [RUFY1]”, for which the thermal stability score in data set [1] (setting [5]) came to 0.538; in data set [1] (cell cycle stage: mitosis) it was 1.01. Moreover, in data set [2], the “solubility in G1/S (log2)” value is 0.163. For the same substance, the figures for the melting temperature in data set [3] (cell cycle stage: G1/S) and in data set [3] (cell cycle stage: mitosis) were 49.5 °C and 49.8 °C, respectively. Further, the “solubility change mitosis (log2)” value in data set [4] is -0.0933.
